The record followed here is article PMC3386157, “G Protein Activation without a GEF in the Plant Kingdom” (PLoS Genetics, 2012).

Numbering of substitutions follows the chain as printed.

Broadly, the Kd is the concentration at which binding is half-saturated. A high value points to lower affinity. The koff is a measure of how fast the partners let go of each other. A high value points to fast dissociation. The kon is the rate constant with which the complex forms. Higher therefore signals faster complex formation.

Holding throughout (assay): SPR; BIAcore 2000; His-tagged AtRGS1 (284-459 aa) immobilised on sensor chip CM5 by amine coupling; AlF4-bound Gα flowed at 6.25-400 nM in running buffer with 20 mM NaF and 100 µM AlCl3; 25°C, 10 µl/min; 10 mM Hepes, 150 mM NaCl, 3 mM EDTA, 0.005% Tween-20, 100 µM GDP, 10 mM MgCl2; 1:1 Langmuir model
Common to all, as to conditions: both partners purified

One experiment deals with T1, His-AtGPA1 (Arabidopsis thaliana, UniProt P18064 1-383).
T1 construct: Arabidopsis thaliana heterotrimeric G protein alpha subunit AtGPA1; also called Arabidopsis thaliana Gα; wild type Arabidopsis Gα subunit; not shown: His6, N-terminal, kept
T1 sequence (looked up): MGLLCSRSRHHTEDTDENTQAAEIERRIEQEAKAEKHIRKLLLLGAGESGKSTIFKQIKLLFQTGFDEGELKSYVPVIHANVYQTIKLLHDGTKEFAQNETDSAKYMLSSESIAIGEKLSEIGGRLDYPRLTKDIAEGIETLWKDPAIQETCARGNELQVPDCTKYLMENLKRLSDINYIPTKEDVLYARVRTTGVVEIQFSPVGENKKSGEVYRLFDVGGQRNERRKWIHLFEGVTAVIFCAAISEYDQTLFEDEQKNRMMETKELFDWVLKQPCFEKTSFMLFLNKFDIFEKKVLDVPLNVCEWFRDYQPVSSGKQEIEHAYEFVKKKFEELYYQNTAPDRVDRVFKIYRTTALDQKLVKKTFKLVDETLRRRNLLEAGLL

Another experiment concerns the target T2, OsRGA1 (Oryza sativa, UniProt Q0DJ33 1-380).
T2 construct: Oryza sativa heterotrimeric G protein alpha subunit OsRGA1; cDNA synthesized with codon usage optimised for E. coli; No tag cleavage is described; also called rice Gα; wild type rice Gα subunit
T2 sequence (looked up): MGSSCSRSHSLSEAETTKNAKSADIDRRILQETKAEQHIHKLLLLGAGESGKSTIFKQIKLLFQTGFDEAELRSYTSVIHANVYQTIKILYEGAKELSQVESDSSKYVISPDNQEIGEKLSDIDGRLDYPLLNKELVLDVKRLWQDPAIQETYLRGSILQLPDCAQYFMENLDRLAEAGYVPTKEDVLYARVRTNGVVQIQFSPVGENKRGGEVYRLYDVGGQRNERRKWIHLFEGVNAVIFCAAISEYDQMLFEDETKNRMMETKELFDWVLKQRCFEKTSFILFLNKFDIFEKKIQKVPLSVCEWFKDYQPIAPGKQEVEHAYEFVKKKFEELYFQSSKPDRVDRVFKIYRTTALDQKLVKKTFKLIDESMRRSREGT

The next experiment concerns the target T3, OsRGA1-N195T (Oryza sativa, UniProt Q0DJ33 1-380, N195T).
T3 construct: Oryza sativa heterotrimeric G protein alpha subunit OsRGA1 with N195T (switch I); printed as N191T in two paragraphs; also called OsRGA1-N191T; 195T mutant rice Gα subunit
T3 sequence (looked up): T2 sequence (looked up) with N195T

A further experiment addresses T4, AtGPA1-T194N (Arabidopsis thaliana, UniProt P18064 1-383, T194N).
T4 construct: Arabidopsis thaliana heterotrimeric G protein alpha subunit AtGPA1 with T194N (switch I); No tag cleavage is described; also called T194N mutant Arabidopsis Gα subunit
T4 sequence (looked up): T1 sequence (looked up) with T194N

B1: Recombinant His-AtRGS1 (284–459 aa) (domain or fragment, Arabidopsis thaliana, UniProt Q8H1F2 284-459, looked up)
chain: KEEFRPVDPNEPLDKLLLNKRFRHSFMEFADSCYAGETLHFFEEVYEHGKIPEDDSIRRIYMARHIMEKFIVAGAEMELNLSHKTRQEILTTQDLTHTDLFKNALNEVMQLIKMNLVRDYWSSIYFIKFKEEESCHEAMHKEGYSFSSPRLSSVQGSDDPFYQEHMSKSSRCSSPG
notes: Arabidopsis thaliana Regulator of G protein Signaling 1 (AtRGS1), residues 284-459
For the molecule B1, the Kd was 17.4 nM with His-AtGPA1, 56.7 nM with OsRGA1, 4.83 nM with OsRGA1-N195T and 115 nM with AtGPA1-T194N. Further, the off-rate (koff) came out at 0.00616 s⁻¹ with His-AtGPA1, 0.0217 s⁻¹ with OsRGA1, 0.00584 s⁻¹ with OsRGA1-N195T and 0.0134 s⁻¹ in the experiment with AtGPA1-T194N. In addition, the association rate constant (kon) with His-AtGPA1 turned out to be 353000 M⁻¹ s⁻¹; with OsRGA1 it was 383000 M⁻¹ s⁻¹; in the experiment with OsRGA1-N195T it was 1.21e+06 M⁻¹ s⁻¹; with AtGPA1-T194N, 117000 M⁻¹ s⁻¹.
